Laboratory results published in patent US20070244048A1 (published 2007).
Read-outs that look alike come from different tables or passages of the source. Non-standard residues stand in square brackets, D forms with d. No end group written: not given here.

What was measured:
human NMUR1 [1] = target: T1, human NMUR1 (human, UniProt Q9HB89 1-426); test: cell-based or functional assay
T1 sequence (looked up): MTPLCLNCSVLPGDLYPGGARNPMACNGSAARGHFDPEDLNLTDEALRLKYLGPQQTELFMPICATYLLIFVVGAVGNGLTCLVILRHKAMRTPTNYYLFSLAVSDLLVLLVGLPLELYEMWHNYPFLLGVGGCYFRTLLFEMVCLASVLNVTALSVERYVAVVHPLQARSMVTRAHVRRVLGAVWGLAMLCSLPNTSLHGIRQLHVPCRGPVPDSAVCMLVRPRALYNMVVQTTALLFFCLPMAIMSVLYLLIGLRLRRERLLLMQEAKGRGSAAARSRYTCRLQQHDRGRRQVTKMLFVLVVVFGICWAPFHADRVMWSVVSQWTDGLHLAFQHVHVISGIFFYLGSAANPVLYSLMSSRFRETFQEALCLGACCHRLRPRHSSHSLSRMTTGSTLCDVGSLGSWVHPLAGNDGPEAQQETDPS

human NMUR2 [2] = target: T2, human NMUR2 (human, UniProt Q9GZQ4 1-415); test: cell-based or functional assay
mouse NMUR1-ATG [3] = target: T3, mouse NMUR1-ATG (mouse, UniProt O55040 1-428); test: cell-based or functional assay
T3 sequence (looked up): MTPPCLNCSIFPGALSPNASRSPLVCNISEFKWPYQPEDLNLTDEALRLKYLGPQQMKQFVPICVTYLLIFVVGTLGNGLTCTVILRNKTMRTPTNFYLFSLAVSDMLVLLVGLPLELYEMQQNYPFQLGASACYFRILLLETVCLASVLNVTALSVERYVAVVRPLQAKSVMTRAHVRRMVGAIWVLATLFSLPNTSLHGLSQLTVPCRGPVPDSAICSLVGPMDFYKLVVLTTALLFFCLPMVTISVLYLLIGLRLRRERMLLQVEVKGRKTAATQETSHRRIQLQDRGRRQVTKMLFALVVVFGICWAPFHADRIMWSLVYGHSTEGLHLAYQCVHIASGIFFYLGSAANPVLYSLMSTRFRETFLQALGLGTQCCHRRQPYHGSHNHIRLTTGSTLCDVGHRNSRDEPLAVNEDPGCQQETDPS

mouse NMUR1-CTG [4] = target: T4, mouse NMUR1-CTG (mouse, UniProt O55040 1-428); test: cell-based or functional assay
T4 sequence (looked up): T3 sequence (looked up)

mouse NMUR2 [5] = target: T5, mouse NMUR2 (mouse, UniProt Q8BZ39 1-395); test: cell-based or functional assay
rat NMUR1-ATG [6] = target: T6, rat NMUR1-ATG (rat, UniProt Q9JJI5 1-425); test: cell-based or functional assay
T6 sequence (looked up): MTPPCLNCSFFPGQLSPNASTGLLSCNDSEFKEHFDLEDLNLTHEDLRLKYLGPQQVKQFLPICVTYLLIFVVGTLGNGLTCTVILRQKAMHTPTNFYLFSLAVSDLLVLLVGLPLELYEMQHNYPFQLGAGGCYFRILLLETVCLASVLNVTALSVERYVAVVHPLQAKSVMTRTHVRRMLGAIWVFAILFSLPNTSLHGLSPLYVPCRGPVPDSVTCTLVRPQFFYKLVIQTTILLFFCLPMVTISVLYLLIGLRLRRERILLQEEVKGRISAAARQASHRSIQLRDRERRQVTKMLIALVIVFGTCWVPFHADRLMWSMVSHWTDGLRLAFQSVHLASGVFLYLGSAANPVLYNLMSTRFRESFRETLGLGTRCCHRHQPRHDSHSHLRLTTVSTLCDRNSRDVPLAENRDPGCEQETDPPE

rat NMUR1-TTG [7] = target: T7, rat NMUR1-TTG (rat, UniProt Q9JJI5 1-425); test: cell-based or functional assay
T7 sequence (looked up): T6 sequence (looked up)

rat NMUR2 [8] = target: T8, rat NMUR2 (rat, UniProt Q9ESQ4 1-395); test: cell-based or functional assay
human NMUR1 [9] = target: T1, human NMUR1; test: cell-based or functional assay; remark: listed apart in the source
human NMUR2 [10] = target: T2, human NMUR2; test: cell-based or functional assay; remark: listed apart in the source
human NMUR1 [11] = target: T1, human NMUR1; test: 125I-hNMU-25 displacement, cell membranes
human NMUR2 [12] = target: T2, human NMUR2; test: 125I-hNMU-25 displacement, cell membranes
mouse NMUR1-ATG [13] = target: T3, mouse NMUR1-ATG; test: 125I-hNMU-25 displacement, cell membranes
mouse NMUR1-CTG [14] = target: T4, mouse NMUR1-CTG; test: 125I-hNMU-25 displacement, cell membranes
mouse NMUR2 [15] = target: T5, mouse NMUR2; test: 125I-hNMU-25 displacement, cell membranes
rat NMUR1-ATG [16] = target: T6, rat NMUR1-ATG; test: 125I-hNMU-25 displacement, cell membranes
rat NMUR1-TTG [17] = target: T7, rat NMUR1-TTG; test: 125I-hNMU-25 displacement, cell membranes
rat NMUR2 [18] = target: T8, rat NMUR2; test: 125I-hNMU-25 displacement, cell membranes
human NMUR1 [19] = target: T1, human NMUR1; test: 125I-hNMU-25 displacement, HEK cell membranes
Description: (§1) Confluent cell monolayers expressing NMU receptors (the HEK cells described above) were harvested with phosphate buffered saline, collected by centrifugation, and resuspended in membrane buffer (50 mM TrisCl pH 7.4, 5 mM MgCl₂, 1× Protease Inhibitor Cocktail, 10 μM phosphoramidon). After the cell pellet was homogenized, the solution was centrifuged at 18,000 rpm for 20 minutes at 4° C. The pellet was resuspended in membrane buffer to yield a final concentration of 0.5-5 μg/μL of membrane and stored at −80° C.
(§2) Experiments were performed in assay buffer (25 mM TrisCl, pH 7.4, 10 mM MgCl₂, 2mM EDTA, 1× Protease Inhibitor Cocktail, 100 μg/mL Bacitricin, 10 μM phosphoramidon) in 200 μL volumes in a 96-well format using 2-5 μg of membrane and […] ¹²⁵I-hNMU-25 (about 12,000 cpm/well). For non-specific binding, 1 μM hNMU-25 was added. About 5 μL of peptides were added to measure antagonist activity, and the entire reaction was incubated at room temperature with shaking for 80 minutes. The reaction was terminated by rapid filtration through 0.3% poly-ethylenimine presoaked Millipore 96-well filter plates and washed with ice-cold buffer (5 mM TrisCl pH 7.4, 10 mM MgCl₂, 2.5 mM EDTA, 0.04% Triton X-100). Plates were air-dried overnight at room temperature and recovered radioactivity was determined by standard scintillation counting. IC₅₀ values were determined using GraphPad Prism software.
(§3) Concentration-response curves and radioligand-binding data were fitted using Prism (GraphPad Software). Results are summarized below in Tables 8 and 9.

human NMUR2 [20] = target: T2, human NMUR2; test: 125I-hNMU-25 displacement, HEK cell membranes
Description: as §1, §2, §3

human NMUR1 [21] = target: T1, human NMUR1; test: cell-based or functional assay; remark: listed apart in the source
human NMUR2 [22] = target: T2, human NMUR2; test: cell-based or functional assay; remark: listed apart in the source
[23] = target: T9, human NMUR1 (human), Q9HB89; test: 125I-hNMU-25 displacement, HEK cell membranes; details: remark: other sources report otherwise
T9 chain: T1 sequence (looked up)

T5 sequence (Q8BZ39 whole entry): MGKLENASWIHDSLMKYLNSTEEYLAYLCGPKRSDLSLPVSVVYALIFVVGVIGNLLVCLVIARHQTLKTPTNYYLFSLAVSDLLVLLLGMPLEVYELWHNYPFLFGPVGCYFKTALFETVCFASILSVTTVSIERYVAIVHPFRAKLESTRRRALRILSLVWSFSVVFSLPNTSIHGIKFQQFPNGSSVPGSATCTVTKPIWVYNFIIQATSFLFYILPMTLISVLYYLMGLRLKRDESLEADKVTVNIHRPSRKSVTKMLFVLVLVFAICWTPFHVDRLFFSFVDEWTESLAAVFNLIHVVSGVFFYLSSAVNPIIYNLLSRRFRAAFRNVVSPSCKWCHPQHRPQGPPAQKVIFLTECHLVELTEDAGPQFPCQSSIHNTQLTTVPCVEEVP
T2 sequence (Q9GZQ4 whole entry): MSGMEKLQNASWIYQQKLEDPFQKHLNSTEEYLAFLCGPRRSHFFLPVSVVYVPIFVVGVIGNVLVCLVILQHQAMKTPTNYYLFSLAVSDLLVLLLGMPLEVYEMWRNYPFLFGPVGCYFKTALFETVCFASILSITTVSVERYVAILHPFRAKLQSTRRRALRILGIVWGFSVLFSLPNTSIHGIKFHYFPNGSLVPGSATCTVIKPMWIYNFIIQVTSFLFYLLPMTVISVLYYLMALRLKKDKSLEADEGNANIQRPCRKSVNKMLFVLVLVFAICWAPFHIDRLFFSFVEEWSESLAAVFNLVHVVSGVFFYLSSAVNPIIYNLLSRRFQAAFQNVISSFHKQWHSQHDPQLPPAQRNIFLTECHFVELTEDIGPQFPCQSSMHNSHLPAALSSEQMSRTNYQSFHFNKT
T8 sequence (Q9ESQ4 whole entry): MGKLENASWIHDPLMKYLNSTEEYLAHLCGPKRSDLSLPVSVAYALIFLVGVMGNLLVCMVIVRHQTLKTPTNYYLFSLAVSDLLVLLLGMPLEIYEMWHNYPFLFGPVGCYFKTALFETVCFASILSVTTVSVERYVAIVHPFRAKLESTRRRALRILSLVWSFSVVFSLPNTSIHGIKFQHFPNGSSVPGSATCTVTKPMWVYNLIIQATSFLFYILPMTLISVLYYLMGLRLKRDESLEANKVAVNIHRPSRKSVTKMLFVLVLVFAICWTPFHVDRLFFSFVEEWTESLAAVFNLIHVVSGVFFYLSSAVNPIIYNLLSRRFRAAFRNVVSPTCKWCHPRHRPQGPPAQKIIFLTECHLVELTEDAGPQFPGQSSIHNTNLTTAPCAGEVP

FRVDEEFQSPFASQSRGYF[dL]WRPRN-NH2 (not fully specified) [neuromedin U receptor agonist H]
% activity (human NMUR1 [1]): 90%
IC50 (nM), functional (human NMUR1 [1]): 1.25 nM
% activity (human NMUR2 [2]): 0%
IC50 (nM), functional (human NMUR2 [2]): > 1000 nM
% activity (mouse NMUR1-ATG [3]): 90%
IC50 (nM), functional (mouse NMUR1-ATG [3]): 25 nM
% activity (mouse NMUR1-CTG [4]): 77%
IC50 (nM), functional (mouse NMUR1-CTG [4]): 66 nM
% activity (mouse NMUR2 [5]): 40%
IC50 (nM), functional (mouse NMUR2 [5]): > 1000 nM
% activity (rat NMUR1-ATG [6]): 95%
IC50 (nM), functional (rat NMUR1-ATG [6]): 31.1 nM
% activity (rat NMUR1-TTG [7]): 91%
IC50 (nM), functional (rat NMUR1-TTG [7]): 153 nM
% activity (rat NMUR2 [8]): 42%
IC50 (nM), functional (rat NMUR2 [8]): > 1000 nM
% activity (human NMUR1 [9]): 88%
IC50 (nM), functional (human NMUR1 [9]): 19 nM
IC50 (nM), functional (human NMUR2 [10]): > 1000 nM
% inhibition of NMU-25 binding (human NMUR1 [11]): 93%
IC50 (human NMUR1 [11]): 1.1 nM
% inhibition of NMU-25 binding (human NMUR2 [12]): 7%
IC50 (human NMUR2 [12]): 782 nM
% inhibition of NMU-25 binding (mouse NMUR1-ATG [13]): 77%
IC50 (mouse NMUR1-ATG [13]): 66 nM
% inhibition of NMU-25 binding (mouse NMUR1-CTG [14]): 83%
IC50 (mouse NMUR1-CTG [14]): 25 nM
% inhibition of NMU-25 binding (mouse NMUR2 [15]): 20%
% inhibition of NMU-25 binding (rat NMUR1-ATG [16]): 100%
IC50 (rat NMUR1-ATG [16]): 15.9 nM
% inhibition of NMU-25 binding (rat NMUR1-TTG [17]): 100%
IC50 (rat NMUR1-TTG [17]): 11 nM
% inhibition of NMU-25 binding (rat NMUR2 [18]): 0%
% activity (binding) (human NMUR1 [19]): 93%
IC50 (human NMUR1 [19]): 1.1 nM
% activity (binding) (human NMUR2 [20]): 7%
IC50 (human NMUR2 [20]): 780 nM

FWLFRARN-NH2 [neuromedin U receptor agonist L]
% activity (human NMUR1 [21]): 74%
EC50 (human NMUR1 [21]): > 1000 nM
% activity (human NMUR2 [22]): 100%
EC50 (human NMUR2 [22]): 6.2 nM
% activity (binding) (human NMUR2 [20]): 100%
IC50 (human NMUR2 [20]): 37 nM
% activity (binding) [23]: 0%
